# Data reported in patent US7700318 (AMPROTEIN, dated 2010).
# T1: recombinant human IL-1 receptor extracellular domain (human, UniProt P14778 18-336)
# T1 construct: extracellular domain; also called in-house mammalian recombinant IL-receptor extracellular domain
# T1 sequence (looked up): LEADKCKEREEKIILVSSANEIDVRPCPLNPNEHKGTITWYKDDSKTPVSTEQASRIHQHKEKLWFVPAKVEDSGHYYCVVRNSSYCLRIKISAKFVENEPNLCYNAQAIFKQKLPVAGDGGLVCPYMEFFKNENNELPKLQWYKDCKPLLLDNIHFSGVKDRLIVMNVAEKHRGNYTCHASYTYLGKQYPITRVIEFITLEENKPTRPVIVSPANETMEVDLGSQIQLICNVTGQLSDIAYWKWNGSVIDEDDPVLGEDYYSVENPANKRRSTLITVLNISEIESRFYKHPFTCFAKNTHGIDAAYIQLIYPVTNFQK
# Biological target: T1, recombinant human IL-1 receptor …
# Assay: ELISA: test proteins coated on 96-well plate, IL-1 receptor extracellular domain incubated at 37 C, detected with rabbit anti human IL-1 receptor antibodies and goat anti rabbit HRP (FIG. 5)
# Procedure: For IL-1 receptor binding assay, recombinant human IL-1 receptor extracellular domain was first produced in house using a mammalian host. TNFRII-Fc-IL-1ra, negative control TNFRII-Fc and positive control IL-1ra (KINERET) have been coated to 96-well plate. IL-1 receptor is then incubated at 37° C. for binding. The binding is detected using rabbit anti human IL-1 receptor extracellular domain antibodies, followed by goat anti rabbit […] conjugated with HRP.
binder,measurement,value
"TNFRII-Fc (ENBREL) (Fc fusion, UniProt P20333 23-257, looked up, Marketed product; also called marketed TNFRII-Fc (ENBREL); not shown: Fc part of the marketed product) LPAQVAFTPYAPEPGSTCRLREYYDQTAQMCCSKCSPGQHAKVFCTKTSDTVCDSCEDSTYTQLWNWVPECLSCGSRCSSDQVETQACTREQNRICTCRPGWYCALSKQEGCRLCAPLRKCRPGFGVARPGTETSDVVCKPCAPGTFSNTTSSTDICRPHQICNVVAIPGNASMDAVCTSTSPTRSMAPGAVHLPQPVSTRSQHTQPTPEPSTAPSTSFLLPMGPSPPAEGSTGD",binding result,no binding
